This is an account of results in patent US20150044251A1 (Novartis, published 2015).

The chains are these.
B2: Sta006 (other)
chain: MASCGNQGEKNNKAETKSYKMDDGKTVDIPKDPKRIAVVAPTYAGGLKKLGANIVAVNQQVDQSKVLKDKFKGVTKIGDGDVEKVAKEKPDLIIVYSTDKDIKKYQKVAPTVVVDYNKHKYLEQQEMLGKIVGKEDKVKAWKKDWEETTAKDGKEIKKAIGQDATVSLFDEFDKKLYTYGDNWGRGGEVLYQAFGLKMQPEQQKLTAKAGWAEVKQEEIEKYAGDYIVSTSEGKPTPGYESTNMWKNLKATKEGHIVKVDAGTYWYNDPYTLDFMRKDLKEKLIKAAK
notes: Seen as monomer and dimer in the formulations

Data set [1] deals with the molecule itself. The data set can be described thus: capillary electrophoresis (SDS-MW) of tetravalent formulation, pH 6, no EDTA, 25 C up to 72 h; self-association (disulfide-linked dimer).
Description: (§1) Capillary Electrophoresis analyses were performed with a Beckman Coulter PA800 instrument, SDS-MW application. The sample was prepared by mixing 90 μL of the pre-lyophilized formulation with 10 μL of TRIS-SDS buffer.
In the data set “Sta006” the target is B2. The data set can be described thus: capillary electrophoresis (SDS-MW) of tetravalent formulation, pH 6, no EDTA, 25 C up to 72 h; attributed to redox reactions.
Description: as §1
Data set [2] concerns the molecule itself. The data set is described as follows: SEC-HPLC of tetravalent pre-lyophilized formulation; self-association (dimer peak). On the technique in general: In gel filtration, larger molecules generally elute earlier.

B1: EsxAB hybrid polypeptide (other)
chain: MAMIKMSPEEIRAKSQSYGQGSDQIRQILSDLTRAQGEIAANWEGQAFSRFEEQFQQLSPKVEKFAQLLEEIKQQLNSTADAVQEQDQQLSNNFGLQASGGGSGGYKGIKADGGKVDQAKQLAAKTAKDIEACQKQTQQLAEYIEGSDWEGQFANKVKDVLLIMAKFQEELVQPMADHQKAIDNLSQNLAKYDTLSIKQGLDRVNP
notes: also called EsxAB monomer
Take B1: the binding result (in data set [1]; with Sta006) was “binds” each time. B2: the binding result in data set [2] was “binds”.
